This is an account of results in article PMC9426509.

The experiment addresses Echovirus 18 (E18) mature (full) virus particle, strain HeB15-254 (echovirus 18 (strain HeB15-254)). Put plainly: SPR; Biacore 3000, 25 C; biotinylated full E18 particles in PBS with Tween immobilised on streptavidin (SA) chips; FcRn or CD55 flowed at 31.25 nM to 2,000 nM; pH 7.4; 1:1 binding model. Background: SPR reads the build-up and loss of mass on a sensor chip optically.

Broadly, the Kd is the concentration at which binding is half-saturated. A high value points to lower affinity.

As to “soluble ectodomain of human neonatal Fc receptor (FcRn): FCGRT (A16-L282) with B2M (from UniProt P61769 21-119) (complex)”, the Kd turned out to be 343 nM. This lies in the sub-micromolar range.
